This note sets out measurements from the NTF2 design screens of Basanta et al. (2020).

This data set can be described thus: protease stability score; higher = more stable; yeast display proteolysis, trypsin and chymotrypsin.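 Note: relative to predicted unfolded state with 0 unfolded-like and 1 meaning tenfold more protease.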
“DEEHHELHKMFEEMINKWITGDWEYIVKLLDPHVKLEVGDKRHHGWKQYVLFLEEFMREFKNATIKIHDVTHVDGVVIINMKFHFNGKDIDTTLYLHIVNGRLHDERIEVE”: the protease stability score was found to be 1.74. As for “DEEHHLAKELVRLLQEALSTGDEDEVKRLIDPDYRLIIGEFIFHGREDLERWLHHARVSVKDSHLRHVKVQGDKVEINGERNLIVIIDGKKIERKHRLHLIIIKVDGRWFMESEKYD”, the figure is 1.01. Sequence “DEEHHNAREMLKLFLDFMQTGDWESHLEMADPNVKVIIDGQEFIGRESSERLIREIRIKRHHLEEERIEVQGDKAIVRLRGRRDGNVNGVETETEVHIRIHFKKIDGRWVMTSVHIEVV” came in with a protease stability score of 1.75. The figure for “DEEHKELRRAWEQLIHDIKTGDEESFKRLADPDVQVRVGDKVEHGREATERWLRQVDHIKHFEEKRIHIYDGRVELKGRVTGVINGRELNTEIDFEIVYIDGKLHRIRIHFR” is 1.09; for “DEEHKEREDVAREIITLLLTGDEEIWLSMMDPHTRININGKYAIGRENIEEIIKDLLRRIPNIRIIMQDMKIQGDKVTIHGIHNVNGREHEWRVHIISVNGRIKSIEVRIH” it is 1.47.

Take “DEEHKETEDIAKYFWERFLTGDWKTFKEFADPHVKIDVDGVEHIGREEASKLMRDWDRRFKNVRHTERHHDVIDGKFELHGESNINGVHIKLDVRIVIVDGRLHSVHVEIDRR”: the protease stability score amounted to 1.26.

The sequence “DEEHKEVREHIETSIQALRTGDWELLSKRMDPHVRVIVGDKHLHGREEAHKMLEEWFKRMGIDHFHIKSIEIQGDKTDVEGHMYFNGVSRDTRLYEVWVNGRLKSLTIEMR” had a protease stability score of 0.626. As for “DEEHKFQHDISIFFMKLIETGDEDTLIDMADPNARSEINGKEVHGMEDAYKWWIDFLRQMGIKHLHVETFHVVNGQTKVHSRVHVGDKEFEVEIRLIIINGRLHEIEIIVRTR”, the figure is 1.21; as for “DEEHKHLREILRLMIEWLRTGDWEKIERNADPTTKMDYGEFKTHGREEYYRALMILIRHLGVDHITLHDFTFIDGKIYLDLIIHVNGQHERVTLEMHFVDGVIKRHHVREK”, 0.566; as for “DEEHKIIRDFADEFWHWHLTGNFEEIAKNMDPNVRYEIRIGDKVILHIGMEDVERYLREEIHKFKNLTEDLESKHVVGNKLHLDARLNWNGKTVDIHIEIVVVNGRFKTVTIHIR”, 1.36. The figure for “DEEHKLAEHYLRIWIHALITGDFHKILHLMDPNVRNEVGDKEVHGREEWEKFLKRVKNVVIEHVELDHLLVVDGRVHIRVTLHMSYGDKTEDHDIHVLMHKVDGRWYIKSIHVK” is 2.43; for “DEEHKLQEDFLKALIRSILTGDWEFWKRLLDPHVRMNINGVYVHGRDEAANILIKDLERRGMEIKTITIEDRRHYDGVLEVKLRIQTTIDGQEHETSLEFHVKKYDGRWIIEHITVR” it is 2.19. The figure for “DEEHKTSYKALEQLIRVLRTGDERLMSELADPHVRMDFDGRRHHGRESMKREFLELGIDHVHLDRWNLIGNKVLSDGHMRFDGRSMRVEIIAYKVDGRWVLEEVRFE” is 0.03.

“DEEHNHFERLTRWFEHVWRTGNEEFFRELADPNARMRINGQEYVGREELVRTLHEWLKILGAKHHRKKDEEIQGEKVILIGEVDIDGRTLRHHVHFRIINGRLHSLEVEVK” returned a protease stability score of 1.3. With “DEEHNLSEEAMRHFFETVRTGDEELIYRLLDPNARVQINGKEHHGREDVWEFLWRNYMRADHVEVKVHHVEVQGEKVIIDLRLHVTINGKDLEIRLVLIIHKYNGRWHITELRIL”, the protease stability score amounted to 0.555. As for “DEEHQHSLARTLATALRTGDPEKMKDLADKDVKVVVGDKHIKGRKDAKKWAKDWRDRYDHAQVDDVNVQGENVRIVMNVEVDGHNVVVVMTAIIDGDQVKNVKVTARNEEQEKKMKK”, the figure is 0.252; as for “DEEHQSLRHIAEILLESWETGDFERVWKFADPHTRVDFNGREKHGMHHVHEMFHILGIDHIELRHMEVINGRINSDGHVEVNGQRHRMHLTIFVFDGRLTEVRFDYE”, 2; as for “DEEHRDFKHLIKIFDDSVETGDEETFHKLLDPDVRIRVGDWQLVGREEARRVFQQIRIIIHSNRIHDVKVINGKIHADTHVDFRIEVGDKTVRERSRTIIYLDKVNGVWTIHSIEFK”, 1.08.

The sequence “DEEHRDLEHFMEIYEDALRTGDEKIIKFLLDPHVRFKQGNKQEHGWEAVYRYLHRFDVVKDVRFRIRSLEIQGDFLIVHYEVRYRGEINGQEHHVTIEYVIIVKKIDGKWLVHEVSIL” returned a protease stability score of 1.62.

As for “DEEHRDSEEMTRKFLHNFITGNEHILEDLLDPHVRTDVDGREFIGWELAFKAFREFLERLGFDHIRHRDMKLHVVGNKVTSVITNNIQVGDKEHELRIILINRKIDGKWSVTEVRIHVK”, the protease stability score worked out at 1.25. As for “DEEHREAREAVEDDLRELITGNWDMLRRNLDPRMRLNIDGQDIHGRESVHKRWVELMEELGIDHLELHRVDVIDGRIHTDGHERVDGKHIKVLIVAVKINGRWIIKRLHVH”, the figure is 0.675. In the case of “DEEHREMRDVLDELLEAFHTGDEHSLNRYADPHARHHVNGKEYHGRELMVKIWMDLGIDHVHLEEIHLQGEKLHMDTRVTVNGRTIKVTIIILKINGRWKLTHVEIK”, the protease stability score stood at 0.958.

In turn, “DEEHRHAEEILKDLQKALITGDEHNMMNLLDPHVRVDFDGVEIIGRELWVELFRTLKKELGITRFDIHLHTHDMKIFDGRVTLDTRLHLHYNGRTEERRVIIYVTKVNGRWHIESMEIK” registered a protease stability score of 1.82. Take “DEEHRHAHWLLNVLTKAMITGDESLMEHLLDPNARLIQGEFELVGRERIIDWFHHIRTHEVRIHVEHFDVVNGKAIIFGHVTVDGTVNGQRREFRFDQTYFSSKIDGKWVIESLEME”: the protease stability score was found to be 1.3.

Take “DEEHRKLKKFVRESMEDHRTGDEDRRNELLDPNVRIEIGDKTFHGREDDKKWLEEFGVDHVEIRIRHIDIIGNKAIIDSELRIFVNGRILEFDTIIYAEKYDGRWVHHSVQVR”: the protease stability score turned out to be 0.077. The figure for “DEEHRLSHEIEKHLEDDLRTGDFHHFIKQVDPNTRVRYGDKRLHGMHAVIWTLEHLGIDVFHLTDSHTFENRVVVHVRLEQGDFTMSVEVHATKVNGRWIVTKINFHHS” is 0.023. Regarding “DEEHRSSHHAVEVQFRVLHTGDFHDLRRQLDPDVKFHIDGVNDHGREVFEERVRELGIKHLLIEDHHVEIQGEWAHLRMKGLMEINGKEIKLHIRYLLLKVNGRWSAHTVSIHLE”, the protease stability score came to 1.36. The figure for “DEEHRVIHNAVRILLEAIRTGDEETLRRLLDPHTRIEIGDKELHGWKDAIKFERDVWEILGIDHSEIRIKHVRIIGDKIEVEGEIINYVNGKEIVLDTNLIMRKIDGRWVFKSRKVN” is 1.23. As for “DEEHTDITRATEHLIDSMETGDEDRLQELFDPNTLMRINGRRHHGREDMREFIRELVEKVKNLKIEIDHIDVVGNKVRLEVTLRVNGQEISTHIIIVKVDGRWIVKRMHIN”, the figure is 0.667; as for “DEEIEEARHVFEEVIHNIQTGDEDAYETLMDPNVRLQVGEKKFHGRREVKEWLHEIRVRRYEIRPKDSDVIGEKVIVHGRVRIDGHYNGRDIDLEVQVHRIIVKINGRWFVHEVRIG”, 1.28. As for “DEEIEMLTKLAELFIRLWLTGNEDILESMADPRVRLEINGREHHGRDIVRKIFEHDRHHMRLESIQLHDRRVYNGRADLHGTQYGEINGKRETYTVRLILVIINGRIETVKVIVE”, the figure is 1.14; as for “DEEKDEVREIAERIFHNLRTGDEEKLKHLIDPHVRFEYGDKEHHGWEEMVHFLREWRIHHIHIRDIKVYDGVAHVNGEVDGKFNGRRFRSDTWVIIVTINGRVKQISIQIN”, 1.33; as for “DEEKDHAQMFLELWRHFLETGDEEFLERLADPHVKSLINGVEHHGREIMYKYLIKFLRRLGVDRVHTEVRIHHMHVINGVAFFDGTLHLNFNGQTYSRRVEIIVYKVNGRWHLHEFRIE”, 1.74.

In the case of “DEEKDIIERMSKMITRSWETGNEDWLSELADPDVKFHINGRDHHGMEEMARLWLELVLKLGVKHQTIEHLSIQGDKVHIHSRSDFNGRHMKLEIRVLLVNGKIRSVTVHLHVD”, the protease stability score is 0.633. The figure for “DEEKDIMERIADLMLELSETGDEHTYKRMADPNVRLRFNGVDIHGMDNISKYLKEFFERIDHVEFEIKDFRSFDGRYNNRGLLILNVGDKRIIIDITIRVEVVNGRVKERQVDID” is 0.749; for “DEEKDIMNEWWKRIFNVFHTGDEREHDKMLDPNARFDIGDKTLHGMDDFRRFLHRADHISHFTEHHVEVQGEKLVWEGTYDGEFNGVERRFHTHEQNIIINGKVKRVFFQIR” it is 0.834; for “DEEKDLTEKIAHEIVHNYMTGDFDRFIELADPNVRFIIGDKIYHGREQLLTVLEHWRQEWRLSHVRLDEFEIQGDKVILHTTMNIKYGDKRIDVETEIKIIIINGRIRDWTIDRR” it is 1.42. Take “DEEKEDAYRNAELWIKSINTGDEDVLTDLLDPHARIDIGDKKLHGMESFTKLYRDLGFRIKDFHLKDIRIYGEKIEIHGIIHFEQGDKEHNEDTTIILLKVNGKWIIKRLRVN”: the protease stability score is 1.5. In turn, “DEEKEDFHHAVELVLRVIKTGDEHTARELMDPRVRIDIDGQDFHGWQHIVHFVKHWRIERYSLKYVEYIDGRIHNTVLLDITVDGQRRNLEVYIIFLKYNGRWILTEVILR” came in with a protease stability score of 1.84. The sequence “DEEKEDIERYNRLYFNASTTGDEDTLKRLADPHVRIHVGDKDQVGMEHLSTRLLELRIEVEFDHRHIEVQGDKVTVDGTLTLHIEIGEKRYERRVDLILHWHKIDGRWLIEQVDML” displayed a protease stability score of 1.27.

As to “DEEKEDNKHFLKIHREDLHTGNEDSLKRLADPNARIHIGDKDYHGWEFWLTLSRELGVDHMHLIIDHVDLQGEKARIEGELEFTVGDKKHRIKTRLILEKIDGVWVYKSVTIE”, the protease stability score was determined as 1.04. Regarding “DEEKEEADEHIRLLIDVMKTGDEDSMRRLIDPNVRIRVDGKEDHGMEKLVHLLRHARYREVRIEHVEHQGEKVIIHYKAWVEIDGQENHKKWHFIVTKVDGKWTLKEVSVH”, the protease stability score stood at 2.3. The figure for “DEEKEEAEHFFHFFFHLLITGDEEQWFRLADPNMRVRVNGVLLHGREIWERLVQEIRVNHMHLDRMEIHVFNGRMDVYIIGHVRRIIGDKEETTTVHIRIVMFKVNGRWVIHAVEEDYR” is 1.81; for “DEEKEEARRVLEIFIRSTRTGNFKENTEQMDPNVRIDINGVELHGREDAIRLAVEARIHRVEIEHVTTIGDKVEVHGHVDGTFNGQRTRTRLYVVIEKVDGRWLISEYRYH” it is 1.29; for “DEEKEEEDLVLEILIHMMRTGDEELLDELLDPNARQIVGDKEFIGRELSHWFATFFKNVKVEIKHFRVINGRIHMHVHIQIGDKRHDMRITARKVNGKWVLEESHIR” it is 1.62. For “DEEKEEFKIASKLFIDSLRTGNEELLSFLFDPHAKSDVNGKNIHGMEILAETMSRLFERYKGMQIRVDEIRFFDGQIHLHGRVNFNGREHTVIVIINKVNGQWRIQDLQID”, the protease stability score is 1.11. The figure for “DEEKEEHEKMIERWLRALETGDEHLLRELIDPNVRLDINGRRTHGREDVLRLFVDLGIDHHDIHDVKIIDGRIDMDTRINVNGREIKIRVIARKFDGRWIVESFRVE” is 1.89.
